Drawing on ChEMBL document CHEMBL2073850, “Human organic anion transporters and human organic cation transporters mediate renal transport of prostaglandins” (J Pharmacol Exp Ther, 2002), this text covers Km for 6 proteins.

Substrate in series [1]: CCCCC[C@H](O)/C=C/[C@H]1[C@H](O)CC(=O)[C@@H]1C/C=C\CCCC(=O)O
Kind of series: (§1) TP_TRANSPORTER: uptake in OAT4-expressing S2 cells. The series is classed as functional, cell-based.

Substrate in series [2]: CCCCC[C@H](O)/C=C/[C@@H]1[C@@H](C/C=C\CCCC(=O)O)[C@@H](O)C[C@H]1O
The description is as §1. The format is functional, cell-based.

Substrate in series [3]: CCCCC[C@H](O)/C=C/[C@H]1[C@H](O)CC(=O)[C@@H]1C/C=C\CCCC(=O)O
Kind of series: (§2) TP_TRANSPORTER: uptake in OCT1-expressing S2 cells. The series is classed as functional, cell-based.

Substrate in series [4]: CCCCC[C@H](O)/C=C/[C@@H]1[C@@H](C/C=C\CCCC(=O)O)[C@@H](O)C[C@H]1O
Described as §2. The series is classed as functional, cell-based.

Substrate in series [5]: CCCCC[C@H](O)/C=C/[C@H]1[C@H](O)CC(=O)[C@@H]1C/C=C\CCCC(=O)O
Kind of series: (§3) TP_TRANSPORTER: uptake in OCT2-expressing S2 cells. The series is classed as functional, cell-based.

Substrate in series [6]: CCCCC[C@H](O)/C=C/[C@@H]1[C@@H](C/C=C\CCCC(=O)O)[C@@H](O)C[C@H]1O
Described as §3. The series is classed as functional, cell-based.

Substrate in series [7]: CCCCC[C@H](O)/C=C/[C@H]1[C@H](O)CC(=O)[C@@H]1C/C=C\CCCC(=O)O
Kind of series: (§4) TP_TRANSPORTER: uptake in OAT2-expressing S2 cells. The series is classed as functional, cell-based.

Substrate in series [8]: CCCCC[C@H](O)/C=C/[C@@H]1[C@@H](C/C=C\CCCC(=O)O)[C@@H](O)C[C@H]1O
The description is as §4. The format is functional, cell-based.

Substrate in series [9]: CCCCC[C@H](O)/C=C/[C@H]1[C@H](O)CC(=O)[C@@H]1C/C=C\CCCC(=O)O
Kind of series: cells, lysate or membranes named.

Substrate in series [10]: CCCCC[C@H](O)/C=C/[C@@H]1[C@@H](C/C=C\CCCC(=O)O)[C@@H](O)C[C@H]1O
Kind of series: TP_TRANSPORTER: uptake in OAT1-expressing S2 cells. The series is classed as functional, cell-based.

Substrate in series [11]: CCCCC[C@H](O)/C=C/[C@H]1[C@H](O)CC(=O)[C@@H]1C/C=C\CCCC(=O)O
Kind of series: (§5) TP_TRANSPORTER: uptake in OAT3-expressing S2 cells. The format is functional, cell-based.

Substrate in series [12]: CCCCC[C@H](O)/C=C/[C@@H]1[C@@H](C/C=C\CCCC(=O)O)[C@@H](O)C[C@H]1O
The series is described as §5. The format is functional, cell-based.

What is called Km is the concentration of substrate that gives half-maximal velocity.

B1: Solute carrier family 22 member 11 (Homo sapiens) (protein)
chain: MAFSKLLEQAGGVGLFQTLQVLTFILPCLMIPSQMLLENFSAAIPGHRCWTHMLDNGSAVSTNMTPKALLTISIPPGPNQGPHQCRRFRQPQWQLLDPNATATSWSEADTEPCVDGWVYDRSVFTSTIVAKWDLVCSSQGLKPLSQSIFMSGILVGSFIWGLLSYRFGRKPMLSWCCLQLAVAGTSTIFAPTFVIYCGLRFVAAFGMAGIFLSSLTLMVEWTTTSRRAVTMTVVGCAFSAGQAALGGLAFALRDWRTLQLAASVPFFAISLISWWLPESARWLIIKGKPDQALQELRKVARINGHKEAKNLTIEVLMSSVKEEVASAKEPRSVLDLFCVPVLRWRSCAMLVVNFSLLISYYGLVFDLQSLGRDIFLLQALFGAVDFLGRATTALLLSFLGRRTIQAGSQAMAGLAILANMLVPQDLQTLRVVFAVLGKGCFGISLTCLTIYKAELFPTPVRMTADGILHTVGRLGAMMGPLILMSRQALPLLPPLLYGVISIASSLVVLFFLPETQGLPLPDTIQDLESQKSTAAQGNRQEAVTVESTSL
Turning to B1, the results for the Km in series [1] and in series [2] were 0.154 µM and 0.692 µM, respectively.

B2: Solute carrier family 22 member 1 (Homo sapiens) (protein)
chain: MPTVDDILEQVGESGWFQKQAFLILCLLSAAFAPICVGIVFLGFTPDHHCQSPGVAELSQRCGWSPAEELNYTVPGLGPAGEAFLGQCRRYEVDWNQSALSCVDPLASLATNRSHLPLGPCQDGWVYDTPGSSIVTEFNLVCADSWKLDLFQSCLNAGFLFGSLGVGYFADRFGRKLCLLGTVLVNAVSGVLMAFSPNYMSMLLFRLLQGLVSKGNWMAGYTLITEFVGSGSRRTVAIMYQMAFTVGLVALTGLAYALPHWRWLQLAVSLPTFLFLLYYWCVPESPRWLLSQKRNTEAIKIMDHIAQKNGKLPPADLKMLSLEEDVTEKLSPSFADLFRTPRLRKRTFILMYLWFTDSVLYQGLILHMGATSGNLYLDFLYSALVEIPGAFIALITIDRVGRIYPMAMSNLLAGAACLVMIFISPDLHWLNIIIMCVGRMGITIAIQMICLVNAELYPTFVRNLGVMVCSSLCDIGGIITPFIVFRLREVWQALPLILFAVLGLLAAGVTLLLPETKGVALPETMKDAENLGRKAKPKENTIYLKVQTSEPSGT
On to B2, for which the Michaelis-Menten constant (Km) in series [3] came to 0.657 µM; in [4], 0.477 µM.

B3: Solute carrier family 22 member 2 (Homo sapiens) (protein)
chain: MPTTVDDVLEHGGEFHFFQKQMFFLLALLSATFAPIYVGIVFLGFTPDHRCRSPGVAELSLRCGWSPAEELNYTVPGPGPAGEASPRQCRRYEVDWNQSTFDCVDPLASLDTNRSRLPLGPCRDGWVYETPGSSIVTEFNLVCANSWMLDLFQSSVNVGFFIGSMSIGYIADRFGRKLCLLTTVLINAAAGVLMAISPTYTWMLIFRLIQGLVSKAGWLIGYILITEFVGRRYRRTVGIFYQVAYTVGLLVLAGVAYALPHWRWLQFTVSLPNFFFLLYYWCIPESPRWLISQNKNAEAMRIIKHIAKKNGKSLPASLQRLRLEEETGKKLNPSFLDLVRTPQIRKHTMILMYNWFTSSVLYQGLIMHMGLAGDNIYLDFFYSALVEFPAAFMIILTIDRIGRRYPWAASNMVAGAACLASVFIPGDLQWLKIIISCLGRMGITMAYEIVCLVNAELYPTFIRNLGVHICSSMCDIGGIITPFLVYRLTNIWLELPLMVFGVLGLVAGGLVLLLPETKGKALPETIEEAENMQRPRKNKEKMIYLQVQKLDIPLN
Turning to B3, the Km in series [5] stood at 0.0289 µM; in series [6], 0.334 µM.

B4: Solute carrier family 22 member 7 (Homo sapiens) (protein)
chain: MGFEELLEQVGGFGPFQLRNVALLALPRVLLPLHFLLPIFLAAVPAHRCALPGAPANFSHQDVWLEAHLPREPDGTLSSCLRFAYPQALPNTTLGEERQSRGELEDEPATVPCSQGWEYDHSEFSSTIATESQWDLVCEQKGLNRAASTFFFAGVLVGAVAFGYLSDRFGRRRLLLVAYVSTLVLGLASAASVSYVMFAITRTLTGSALAGFTIIVMPLELEWLDVEHRTVAGVLSSTFWTGGVMLLALVGYLIRDWRWLLLAVTLPCAPGILSLWWVPESARWLLTQGHVKEAHRYLLHCARLNGRPVCEDSFSQEAVSKVAAGERVVRRPSYLDLFRTPRLRHISLCCVVVWFGVNFSYYGLSLDVSGLGLNVYQTQLLFGAVELPSKLLVYLSVRYAGRRLTQAGTLLGTALAFGTRLLVSSDMKSWSTVLAVMGKAFSEAAFTTAYLFTSELYPTVLRQTGMGLTALVGRLGGSLAPLAALLDGVWLSLPKLTYGGIALLAAGTALLLPETRQAQLPETIQDVERKSAPTSLQEEEMPMKQVQN
In the case of B4, the Km in series [7] was 0.713 µM; in series [8], 0.425 µM.

B5: Solute carrier family 22 member 6 (Homo sapiens) (protein)
chain: MAFNDLLQQVGGVGRFQQIQVTLVVLPLLLMASHNTLQNFTAAIPTHHCRPPADANLSKNGGLEVWLPRDRQGQPESCLRFTSPQWGLPFLNGTEANGTGATEPCTDGWIYDNSTFPSTIVTEWDLVCSHRALRQLAQSLYMVGVLLGAMVFGYLADRLGRRKVLILNYLQTAVSGTCAAFAPNFPIYCAFRLLSGMALAGISLNCMTLNVEWMPIHTRACVGTLIGYVYSLGQFLLAGVAYAVPHWRHLQLLVSAPFFAFFIYSWFFIESARWHSSSGRLDLTLRALQRVARINGKREEGAKLSMEVLRASLQKELTMGKGQASAMELLRCPTLRHLFLCLSMLWFATSFAYYGLVMDLQGFGVSIYLIQVIFGAVDLPAKLVGFLVINSLGRRPAQMAALLLAGICILLNGVIPQDQSIVRTSLAVLGKGCLAASFNCIFLYTGELYPTMIRQTGMGMGSTMARVGSIVSPLVSMTAELYPSMPLFIYGAVPVAASAVTVLLPETLGQPLPDTVQDLESRWAPTQKEAGIYPRKGKQTRQQQEHQKYMVPLQASAQEKNGL
In the case of B5, the Km in series [9] was found to be 0.97 µM; in series [10] it was 0.575 µM.

B6: Organic anion transporter 3 (Homo sapiens) (protein)
chain: MTFSEILDRVGSMGHFQFLHVAILGLPILNMANHNLLQIFTAATPVHHCRPPHNASTGPWVLPMGPNGKPERCLRFVHPPNASLPNDTQRAMEPCLDGWVYNSTKDSIVTEWDLVCNSNKLKEMAQSIFMAGILIGGLVLGDLSDRFGRRPILTCSYLLLAASGSGAAFSPTFPIYMVFRFLCGFGISGITLSTVILNVEWVPTRMRAIMSTALGYCYTFGQFILPGLAYAIPQWRWLQLTVSIPFFVFFLSSWWTPESIRWLVLSGKSSKALKILRRVAVFNGKKEEGERLSLEELKLNLQKEISLAKAKYTASDLFRIPMLRRMTFCLSLAWFATGFAYYSLAMGVEEFGVNLYILQIIFGGVDVPAKFITILSLSYLGRHTTQAAALLLAGGAILALTFVPLDLQTVRTVLAVFGKGCLSSSFSCLFLYTSELYPTVIRQTGMGVSNLWTRVGSMVSPLVKITGEVQPFIPNIIYGITALLGGSAALFLPETLNQPLPETIEDLENWSLRAKKPKQEPEVEKASQRIPLQPHGPGLGSS
With B6, the Km in [11] was determined as 0.345 µM; in series [12], 1.09 µM.
